For one substance, stoichiometry N results are on record in publication doi:10.1101/2020.12.07.415216.

The target in the experiment is SARS-CoV-2 RBD homotrimer (RBD appended onto a cystine-stabilized, hyperglycosylated GCN4 trimerization tag) (SARS-CoV-2). Nature of the experiment: SDS-PAGE under non-reducing conditions.

The term stoichiometry N denotes a count of units in the complex or per binding partner. On to “SARS-CoV-2 RBD homotrimer (RBD appended onto a cystine-stabilized, hyperglycosylated GCN4 trimerization tag)”, for which the stoichiometry N stood at 3.
